Reference: patent publication US20220119534A1 (DRAGONFLY THERAPEUTICS, published 2022)
Where “and” joins values, the source holds several entries; their conditions need not be identical. Equal entries are not always repeated.

Legend:
[1] = molecular target: T1, Human CLEC12A-His (recombinant, K244 WT) (human, UniProt Q5QGZ9 65-265); test: SPR, two-state fit; control sample
T1 construct: Made in house (Dragonfly Tx); also called hCLEC12A; hCLEC12A-His; not shown: His tag
T1 sequence: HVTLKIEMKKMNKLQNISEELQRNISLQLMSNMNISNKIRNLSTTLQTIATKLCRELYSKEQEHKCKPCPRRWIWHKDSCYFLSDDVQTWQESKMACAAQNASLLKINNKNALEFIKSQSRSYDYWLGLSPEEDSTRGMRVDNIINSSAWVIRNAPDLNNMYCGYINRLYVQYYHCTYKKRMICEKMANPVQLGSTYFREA

Human CD16a V158 [2] = molecular target: T2, Human CD16a V158 (human, UniProt P08637 17-208, biotinylated); test: SPR, hCD16a V158 captured, kinetic fit; average for AB0192
T2 construct: Bought recombinant receptor; also called hCD16a (V158); hFcγRIIIa V158

Human CLEC12A-His = molecular target: T3, Human CLEC12A-His (human, UniProt Q5QGZ9 65-265); test: SPR, 37 C, AB0192 captured, hCLEC12A-His analyte; average of 3 replicates
T3 construct: Recombinant soluble protein made in house; also called hCLEC12A-His; hCLEC12A; not shown: His tag
T3 sequence: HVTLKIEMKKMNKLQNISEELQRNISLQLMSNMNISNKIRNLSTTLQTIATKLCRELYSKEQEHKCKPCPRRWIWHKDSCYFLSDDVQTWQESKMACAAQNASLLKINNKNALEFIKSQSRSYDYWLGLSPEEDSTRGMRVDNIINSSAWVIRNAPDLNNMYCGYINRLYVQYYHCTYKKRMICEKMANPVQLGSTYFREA

Human CD64 = molecular target: T4, Human CD64 (human, UniProt P12314 16-288, biotinylated); test: SPR, summary of FcγR affinities
T4 construct: Bought recombinant receptor; also called hFcγRI; Human CD64 (FcγRI)

Human CD16b = molecular target: T5, Human CD16b (human, UniProt O75015 17-200, limits assumed, biotinylated); test: SPR, summary of FcγR affinities
T5 construct: Bought recombinant receptor; also called hFcγRIIIb

Cynomolgus CD64 = molecular target: T6, Cynomolgus CD64 (cynomolgus monkey, UniProt A0A2K5U901 33-309, Probably biotinylated for capture, as in the sister examples (p-1094).); test: SPR, summary of FcγR affinities
T6 construct: Bought recombinant receptor; also called cFcγRI; Cynomolgus CD64 (FcγRI); not shown: The vendor's biotinylation and purification tag

Human CD16a F158 = molecular target: T7, Human CD16a F158 (human, UniProt P08637 17-208, biotinylated); test: SPR, summary of FcγR affinities
T7 construct: Bought recombinant receptor; also called hFcγRIIIa F158

Human CD16a V158 [3] = molecular target: T2, Human CD16a V158; test: SPR, summary of FcγR affinities
Human CD32b = molecular target: T8, Human CD32b (human, UniProt P31994 46-217, limits assumed, biotinylated); test: SPR, summary of FcγR affinities
T8 construct: Bought recombinant receptor; also called hFcγRIIb
T8 sequence (looked up): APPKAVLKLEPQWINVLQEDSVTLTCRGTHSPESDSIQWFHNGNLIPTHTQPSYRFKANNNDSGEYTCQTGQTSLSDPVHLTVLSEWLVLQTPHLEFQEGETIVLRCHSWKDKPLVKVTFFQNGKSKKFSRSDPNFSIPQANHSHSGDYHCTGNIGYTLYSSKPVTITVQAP

Human CD32a H131 = molecular target: T9, Human CD32a H131 (human, UniProt P12318 36-218, limits assumed, biotinylated); test: SPR, summary of FcγR affinities
T9 construct: Bought recombinant receptor; also called hFcγRIIa H131
T9 sequence (looked up): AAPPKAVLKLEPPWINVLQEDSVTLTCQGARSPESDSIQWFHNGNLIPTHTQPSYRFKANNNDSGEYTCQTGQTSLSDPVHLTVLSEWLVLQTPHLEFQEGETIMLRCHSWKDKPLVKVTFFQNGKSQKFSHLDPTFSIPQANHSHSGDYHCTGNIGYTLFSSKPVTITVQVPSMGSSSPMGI

Cynomolgus CD16 = molecular target: T10, Cynomolgus CD16 (cynomolgus monkey, UniProt Q8SPW2 17-208, biotinylated); test: SPR, summary of FcγR affinities
T10 construct: Bought recombinant receptor; also called cFcγRIII; Cynomolgus FcγRIII

Human CD32a R131 = molecular target: T11, Human CD32a R131 (human, UniProt P12318 36-218, limits assumed, biotinylated); test: SPR, summary of FcγR affinities
T11 construct: Bought recombinant receptor; also called hFcγRIIa R131
T11 sequence (looked up): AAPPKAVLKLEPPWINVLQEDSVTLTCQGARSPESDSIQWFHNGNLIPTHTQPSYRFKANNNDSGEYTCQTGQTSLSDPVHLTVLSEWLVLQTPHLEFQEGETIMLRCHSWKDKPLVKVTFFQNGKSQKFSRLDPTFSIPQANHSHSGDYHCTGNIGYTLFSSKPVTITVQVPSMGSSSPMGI

[4] = molecular target: T12, recombinant human CD32a R131 (human, UniProt P12318 36-218, limits assumed, biotinylated); test: SPR 25C, steady state
T12 construct: also called FcγRIIa R131
T12 sequence (looked up): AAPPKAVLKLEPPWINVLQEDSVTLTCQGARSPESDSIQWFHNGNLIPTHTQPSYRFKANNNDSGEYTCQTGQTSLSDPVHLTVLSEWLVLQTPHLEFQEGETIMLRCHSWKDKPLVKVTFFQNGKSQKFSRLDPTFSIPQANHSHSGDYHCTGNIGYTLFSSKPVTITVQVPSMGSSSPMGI

[5] = molecular target: T13, recombinant human CD32a H131 (human, UniProt P12318 36-218, limits assumed, biotinylated); test: SPR 25C, steady state, average
T13 construct: also called FcγRIIa H131
T13 sequence (looked up): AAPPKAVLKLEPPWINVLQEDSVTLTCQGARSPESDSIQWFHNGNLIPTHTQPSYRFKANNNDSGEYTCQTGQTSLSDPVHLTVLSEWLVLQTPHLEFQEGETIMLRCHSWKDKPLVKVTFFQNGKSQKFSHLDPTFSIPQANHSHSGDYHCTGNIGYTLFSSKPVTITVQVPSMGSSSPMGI
Procedure: Human and cyno CD64, high and low affinity alleles of CD16a (V158 and F158, respectively), two alleles of CD32a (H131 and R131), CD16b, CD32b and cynomolgus CD16 were captured via biotin on a primed Biacore chip, prepared according to the manufacturer's instructions.
For no-signal reference, a 0 nM blank cycle at the start of each concentration series and receptor free chip surface were used. Each experimental cycle included association, dissociation and regeneration steps. All steps were executed at a flow rate of 30 μL/min and at 25° C.

T2 sequence (P08637 17-208 F176V limits assumed): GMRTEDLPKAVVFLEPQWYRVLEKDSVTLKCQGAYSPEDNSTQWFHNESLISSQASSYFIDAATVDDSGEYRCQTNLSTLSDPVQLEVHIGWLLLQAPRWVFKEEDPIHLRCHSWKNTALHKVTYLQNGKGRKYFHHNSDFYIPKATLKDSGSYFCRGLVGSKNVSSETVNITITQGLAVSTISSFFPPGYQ
T10 sequence (Q8SPW2 17-208 limits assumed): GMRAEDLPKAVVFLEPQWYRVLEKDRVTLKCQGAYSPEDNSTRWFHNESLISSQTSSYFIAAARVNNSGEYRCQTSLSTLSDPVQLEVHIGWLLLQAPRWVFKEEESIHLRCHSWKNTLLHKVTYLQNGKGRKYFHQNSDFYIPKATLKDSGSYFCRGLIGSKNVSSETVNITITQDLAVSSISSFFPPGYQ
T5 sequence (O75015 17-200 limits assumed): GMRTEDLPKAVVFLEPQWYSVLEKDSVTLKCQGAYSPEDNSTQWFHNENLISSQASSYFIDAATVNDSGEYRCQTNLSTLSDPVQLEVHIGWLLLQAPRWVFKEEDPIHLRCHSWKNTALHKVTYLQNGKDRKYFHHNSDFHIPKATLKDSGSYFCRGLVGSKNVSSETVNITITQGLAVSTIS
T7 sequence (P08637 17-208 limits assumed): as the sequence (P08637 17-208 F176V limits assumed) above, with V160F counted along it
T4 sequence (P12314 16-288 limits assumed): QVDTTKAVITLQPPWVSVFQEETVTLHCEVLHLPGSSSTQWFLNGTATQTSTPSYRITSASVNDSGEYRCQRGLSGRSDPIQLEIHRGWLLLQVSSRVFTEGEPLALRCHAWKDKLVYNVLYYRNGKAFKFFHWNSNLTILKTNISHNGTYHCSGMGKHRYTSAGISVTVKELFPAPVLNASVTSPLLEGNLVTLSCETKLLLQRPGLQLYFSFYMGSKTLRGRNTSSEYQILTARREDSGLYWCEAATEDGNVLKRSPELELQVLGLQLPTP
T6 sequence (A0A2K5U901 entry or part of it limits assumed): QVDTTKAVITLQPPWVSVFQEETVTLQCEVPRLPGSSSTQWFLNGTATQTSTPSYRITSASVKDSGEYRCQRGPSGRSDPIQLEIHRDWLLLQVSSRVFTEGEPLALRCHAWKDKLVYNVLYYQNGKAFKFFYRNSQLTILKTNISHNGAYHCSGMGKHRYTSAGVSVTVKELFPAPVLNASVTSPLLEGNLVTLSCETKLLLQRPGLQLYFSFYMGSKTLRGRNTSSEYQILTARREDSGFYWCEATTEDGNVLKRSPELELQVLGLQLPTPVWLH

B1: AB0089 TriNKET (bispecific antibody, human IgG1, kappa)
chain: QLQLQESGPGLVKPSETLSLTCTVSGFSLTNYGLHWIRQPPGKCLEWIGVIWVGGATDYNPSLKSRVTISVDTSKNQFSLKLSSVQAADTAVYYCAKGDYGDTLDYWGQGTLVTVSSGGGGSGGGGSGGGGSGGGGSDIQMTQSPSSLSASVGDRVTITCHASQNINFWLSWYQQKPGKAPKLLIYEASNLHTGVPSRFSGSGSGTDFTLTISSLQPEDFATYYCQQSHSYPLTFGCGTKLEIKGSDKTHTCPPCPAPELLGGPSVFLFPPKPKDTLMISRTPEVTCVVVDVSHEDPEVKFNWYVDGVEVHNAKTKPREEQYNSTYRVVSVLTVLHQDWLNGKEYKCKVSNKALPAPIEKTISKAKGQPREPRVYTLPPCRDELTKNQVSLTCLVKGFYPSDIAVEWESNGQPENNYKTTPPVLVSDGSFTLYSKLTVDKSRWQQGNVFSCSVMHEALHNHYTQKSLSLSPG
heavy: EVQLVESGGGLVKPGGSLRLSCAASGFTFSSYSMNWVRQAPGKGLEWVSSISSSSSYIYYADSVKGRFTISRDNAKNSLYLQMNSLRAEDTAVYYCARGAPIGAAAGWFDPWGQGTLVTVSSASTKGPSVFPLAPSSKSTSGGTAALGCLVKDYFPEPVTVSWNSGALTSGVHTFPAVLQSSGLYSLSSVVTVPSSSLGTQTYICNVNHKPSNTKVDKKVEPKSCDKTHTCPPCPAPELLGGPSVFLFPPKPKDTLMISRTPEVTCVVVDVSHEDPEVKFNWYVDGVEVHNAKTKPREEQYNSTYRVVSVLTVLHQDWLNGKEYKCKVSNKALPAPIEKTISKAKGQPREPQVCTLPPSRDELTENQVSLTCLVKGFYPSDIAVEWESNGQPENNYKTTPPVLDSDGSFFLYSWLTVDKSRWQQGNVFSCSVMHEALHNHYTQKSLSLSPG
light: DIQMTQSPSSVSASVGDRVTITCRASQGISSWLAWYQQKPGKAPKLLIYAASSLQSGVPSRFSGSGSGTDFTLTISSLQPEDFATYYCQQGVSFPRTFGGGTKVEIKRTVAAPSVFIFPPSDEQLKSGTASVVCLLNNFYPREAKVQWKVDNALQSGNSQESVTEQDSKDSTYSLSSTLTLSKADYEKHKVYACEVTHQGLSSPVTKSFNRGEC
notes: F3' format heterodimer of three chains; human IgG1 Fc with EW-RVT and Y349C/S354C mutations; also called AB0089 Lot AB0089-002; CLEC12A TriNKET AB0089
Kd [1]: 1 nM

B2: AB0192 TriNKET (other)
chain: EVQLVESGGGVVQPGGSLRLSCAASGFTFNAFGMHWVRQAPGKCLEWVAFISSGSTSIYYANTVKGRFTISRDNSKNTLYLQMNSLRAEDTAVYYCARDGYPTGGAMDYWGQGTSVTVSSGGGGSGGGGSGGGGSGGGGSDIQMTQSPSSLSASVGDRVTITCKASQDIYNYLSWFQQKPGKAPKPLIYRANILVSGVPSRFSGSGSGQDYTFTISSLQPEDIATYYCLQFDAFPFTFGCGTKLEIKGSDKTHTCPPCPAPELLGGPSVFLFPPKPKDTLMISRTPEVTCVVVDVSHEDPEVKFNWYVDGVEVHNAKTKPREEQYNSTYRVVSVLTVLHQDWLNGKEYKCKVSNKALPAPIEKTISKAKGQPREPRVYTLPPCRDELTKNQVSLTCLVKGFYPSDIAVEWESNGQPENNYKTTPPVLVSDGSFTLYSKLTVDKSRWQQGNVFSCSVMHEALHNHYTQKSLSLSPG
heavy: EVQLVESGGGLVKPGGSLRLSCAASGFTFSSYSMNWVRQAPGKGLEWVSSISSSSSYIYYADSVKGRFTISRDNAKNSLYLQMNSLRAEDTAVYYCARGAPIGAAAGWFDPWGQGTLVTVSSASTKGPSVFPLAPSSKSTSGGTAALGCLVKDYFPEPVTVSWNSGALTSGVHTFPAVLQSSGLYSLSSVVTVPSSSLGTQTYICNVNHKPSNTKVDKKVEPKSCDKTHTCPPCPAPELLGGPSVFLFPPKPKDTLMISRTPEVTCVVVDVSHEDPEVKFNWYVDGVEVHNAKTKPREEQYNSTYRVVSVLTVLHQDWLNGKEYKCKVSNKALPAPIEKTISKAKGQPREPQVCTLPPSRDELTENQVSLTCLVKGFYPSDIAVEWESNGQPENNYKTTPPVLDSDGSFFLYSWLTVDKSRWQQGNVFSCSVMHEALHNHYTQKSLSLSPG
light: DIQMTQSPSSVSASVGDRVTITCRASQGISSWLAWYQQKPGKAPKLLIYAASSLQSGVPSRFSGSGSGTDFTLTISSLQPEDFATYYCQQGVSFPRTFGGGTKVEIKRTVAAPSVFIFPPSDEQLKSGTASVVCLLNNFYPREAKVQWKVDNALQSGNSQESVTEQDSKDSTYSLSSTLTLSKADYEKHKVYACEVTHQGLSSPVTKSFNRGEC
notes: the condition stands under assay; also called AB0192 Lot AB0192-005
Kd (Human CD16a V158 [2]): 178 nM
koff (Human CD16a V158 [2]): 0.0199 s⁻¹
kon (Human CD16a V158 [2]): 112000 M⁻¹ s⁻¹
Kd (Human CLEC12A-His): 1.81 nM
koff (Human CLEC12A-His): 0.0014 s⁻¹
kon (Human CLEC12A-His): 776000 M⁻¹ s⁻¹
Kd (Human CD64): 5.2 nM
Kd (Human CD16b): 6010 nM
Kd (Cynomolgus CD64): 1.9 nM
Kd (Human CD16a F158): 680 nM
Kd (Human CD16a V158 [3]): 178 nM
Kd (Human CD32b): 6060 nM
Kd (Human CD32a H131): 1010 nM
Kd (Cynomolgus CD16): 204 nM
Kd (Human CD32a R131): 1400 nM

B3: F3'-1602 TriNKET (other)
chain: QLQLQESGPGLVKPSETLSLTCTVSGFSLTNYGLHWIRQPPGKCLEWIGVIWSGGKTDYNPSLKSRVTISKDTSKNQFSLKLSSVQAADTAVYYCAKYDYDDSLDYWGQGTLVTVSSGGGGSGGGGSGGGGSGGGGSDIQMTQSPSSLSASVGDRVTITCHASQNINFWLSWYQQKPGKAPKLLIYEASNLHTGVPSRFSGSGSGTRFTLTISSLQPEDIATYYCQQSHSYPLTFGCGTKLEIKGSDKTHTCPPCPAPELLGGPSVFLFPPKPKDTLMISRTPEVTCVVVDVSHEDPEVKFNWYVDGVEVHNAKTKPREEQYNSTYRVVSVLTVLHQDWLNGKEYKCKVSNKALPAPIEKTISKAKGQPREPRVYTLPPCRDELTKNQVSLTCLVKGFYPSDIAVEWESNGQPENNYKTTPPVLVSDGSFTLYSKLTVDKSRWQQGNVFSCSVMHEALHNHYTQKSLSLSPG
heavy: EVQLVESGGGLVKPGGSLRLSCAASGFTFSSYSMNWVRQAPGKGLEWVSSISSSSSYIYYADSVKGRFTISRDNAKNSLYLQMNSLRAEDTAVYYCARGAPIGAAAGWFDPWGQGTLVTVSSASTKGPSVFPLAPSSKSTSGGTAALGCLVKDYFPEPVTVSWNSGALTSGVHTFPAVLQSSGLYSLSSVVTVPSSSLGTQTYICNVNHKPSNTKVDKKVEPKSCDKTHTCPPCPAPELLGGPSVFLFPPKPKDTLMISRTPEVTCVVVDVSHEDPEVKFNWYVDGVEVHNAKTKPREEQYNSTYRVVSVLTVLHQDWLNGKEYKCKVSNKALPAPIEKTISKAKGQPREPQVCTLPPSRDELTENQVSLTCLVKGFYPSDIAVEWESNGQPENNYKTTPPVLDSDGSFFLYSWLTVDKSRWQQGNVFSCSVMHEALHNHYTQKSLSLSPG
light: DIQMTQSPSSVSASVGDRVTITCRASQGISSWLAWYQQKPGKAPKLLIYAASSLQSGVPSRFSGSGSGTDFTLTISSLQPEDFATYYCQQGVSFPRTFGGGTKVEIKRTVAAPSVFIFPPSDEQLKSGTASVVCLLNNFYPREAKVQWKVDNALQSGNSQESVTEQDSKDSTYSLSSTLTLSKADYEKHKVYACEVTHQGLSSPVTKSFNRGEC
notes: CLEC12A scFv-Fc, NKG2D A49MI Fab-Fc, human IgG1 Fc; also called AB0237
Kd [4]: 1400 nM and 1300 nM and 1700 nM and 1200 nM
Kd [5]: 900 nM
